From PMC2928861

Legend:
[1] = target: ribosome-nascent chain complex (RNC) of Sec61β, TMD inside the ribosomal tunnel (UniProt P60468); assay: co-IP
[2] = target: ribosomes purified under native conditions from reticulocyte lysate; assay: co-sedimentation

Sequence of UniProt P60468 (P60468 whole entry, looked up, one chain of several): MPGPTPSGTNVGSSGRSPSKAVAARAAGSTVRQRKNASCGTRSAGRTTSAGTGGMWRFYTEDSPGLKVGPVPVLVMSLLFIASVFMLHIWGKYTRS

Substance | occupancy of RNCs [1] | percent ribosome-bound [2]
SRP (signal recognition particle), followed by its subunit SRP54 (from UniProt P61011 1-504) (complex) | 7% | 30 to 50%
TRC40 (from UniProt O43681 1-348) (natural protein) | – | < 1%
Bat3 complex (Bat3, TRC35 and Ubl4A) (from UniProt P46379;Q7L5D6;P11441) | 27% | –
